Experimental data: PMC2888420 (The Journal of Biological Chemistry, 2010)
Residue numbers refer to the chain shown, from its start. Numbers in names are those of the source. Square brackets hold non-standard residues; d marks the D form. Ends that are not written are not given here. pS = N[C@@H](COP(=O)(O)O)C(=O)O

B1: BRCA1 BRCT A1843P (domain or fragment, UniProt P38398 1646-1863, looked up)
chain: VNKRMSMVVSGLTPEEFMLVYKFARKHHITLTNLITEETTHVVMKTDAEFVCERTLKYFLGIAGGKWVVSYFWVTQSIKERKMLNEHDFEVRGDVVNGRNHQGPKRARESQDRKIFRGLEICCYGPFTNMPTDQLEWMVQLCGASVVKELSSFTLGTGVHPIVVVQPDAWTEDNGFHAIGQMCEAPVVTREWVLDSVPLYQCQELDTYLIPQIPHSHY
B2: BRCA1 BRCT D1692N (domain or fragment, UniProt P38398 1646-1863, looked up)
chain: B1 chain with D47N, P198A
B3: BRCA1 BRCT D1778N (domain or fragment, UniProt P38398 1646-1863, looked up)
chain: B1 chain with D133N, P198A
B4: BRCA1 BRCT G1706A (domain or fragment, UniProt P38398 1646-1863, looked up)
chain: B1 chain with G61A, P198A
B5: BRCA1 BRCT G1788D (domain or fragment, UniProt P38398 1646-1863, looked up)
chain: B1 chain with G143D, P198A
B6: BRCA1 BRCT G1788V (domain or fragment, UniProt P38398 1646-1863, looked up)
chain: B1 chain with G143V, P198A
B7: BRCA1 BRCT L1664P (domain or fragment, UniProt P38398 1646-1863, looked up)
chain: B1 chain with L19P, P198A
B8: BRCA1 BRCT M1652I (domain or fragment, UniProt P38398 1646-1863, looked up)
chain: B1 chain with M7I, P198A
B9: BRCA1 BRCT M1775R (domain or fragment, UniProt P38398 1646-1863, looked up)
chain: B1 chain with M130R, P198A
B10: BRCA1 BRCT M1783T (domain or fragment, UniProt P38398 1646-1863, looked up)
chain: B1 chain with M138T, P198A
B11: BRCA1 BRCT R1699L (domain or fragment, UniProt P38398 1646-1863, looked up)
chain: B1 chain with R54L, P198A
B12: BRCA1 BRCT R1699Q (domain or fragment, UniProt P38398 1646-1863, looked up)
chain: B1 chain with R54Q, P198A
B13: BRCA1 BRCT R1699W (domain or fragment, UniProt P38398 1646-1863, looked up)
chain: B1 chain with R54W, P198A
B14: BRCA1 BRCT R1751Q (domain or fragment, UniProt P38398 1646-1863, looked up)
chain: B1 chain with R106Q, P198A
B15: BRCA1 BRCT T1773S (domain or fragment, UniProt P38398 1646-1863, looked up)
chain: B1 chain with T128S, P198A
B16: BRCA1 BRCT V1665M (domain or fragment, UniProt P38398 1646-1863, looked up)
chain: B1 chain with V20M, P198A
B17: BRCA1 BRCT V1736A (domain or fragment, UniProt P38398 1646-1863, looked up)
chain: B1 chain with V91A, P198A
B18: BRCA1 BRCT V1808A (domain or fragment, UniProt P38398 1646-1863, looked up)
chain: B1 chain with V163A, P198A
B19: fluorescently labeled phosphopeptide VNKpSYFND-fluorescein (peptide)
peptide: VNK[pS]YFND-fluorescein

Target: B19
Assay: fluorescence polarisation

Binder	fold reduction in affinity against wild type [fold]	fold increase in affinity against wild type [fold]
B1	≤ 1.5	–
B2	~1.4	–
B3	–	~1.5
B4	~1.4	–
B5	≤ 1.5	–
B6	~1.4	–
B7	~1.4	–
B8	~1.4	–
B9	~1.4	–
B10	≤ 1.5	–
B11	~100	–
B12	~100	–
B13	~300	–
B14	~1.4	–
B15	~1.4	–
B16	~1.4	–
B17	~5	–
B18	≤ 1.5	–

Target: BRCA1 BRCT domains, wild type (residues 1646-1863) (UniProt P38398 1646-1863)
Assay: fluorescence polarisation

Binder	Kd [nM]
B19	112 ± 6
